T1: ETS1 (Homo sapiens, UniProt P14921)
T1 sequence: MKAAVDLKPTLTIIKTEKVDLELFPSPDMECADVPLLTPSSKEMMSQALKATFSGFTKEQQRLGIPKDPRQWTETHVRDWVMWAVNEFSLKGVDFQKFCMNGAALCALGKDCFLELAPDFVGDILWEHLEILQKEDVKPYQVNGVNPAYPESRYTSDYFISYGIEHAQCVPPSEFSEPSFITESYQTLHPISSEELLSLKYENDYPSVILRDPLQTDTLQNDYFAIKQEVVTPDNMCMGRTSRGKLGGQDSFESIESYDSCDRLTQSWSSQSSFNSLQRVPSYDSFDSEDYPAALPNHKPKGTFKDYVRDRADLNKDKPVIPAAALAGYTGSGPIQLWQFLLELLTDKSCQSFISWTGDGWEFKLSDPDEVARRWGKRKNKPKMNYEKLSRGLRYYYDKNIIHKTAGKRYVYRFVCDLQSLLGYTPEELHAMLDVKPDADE


Target: T1, ETS1
Experiment: gcPBM; 1 nM ETS1
Conditions: tags: N-terminal GST (pDEST15), kept (PMC6008103); label: surface-attached array probe

Row | Binder | binding signal
1 | Table S2 B row 717 (dsDNA) DNA 1: AATCCCGGAAACGCGGATTCAGCGGAGCGCGGCGAC DNA 2: GTCGCCGCGCTCCGCTGAATCCGCGTTTCCGGGATT | 7670 PBM fluorescence, median of replicate spots
2 | Table S2 C row 154 (dsDNA) DNA 1: CCGTAATCTTCATAAACCTCAATGCTCAAGGTGCAG DNA 2: CTGCACCTTGAGCATTGAGGTTTATGAAGATTACGG | 438 PBM fluorescence, median of replicate spots
3 | Table S2 B row 1656 (dsDNA) DNA 1: CTCTGAGCAGGAAGTGACAAATCCACGCAGGGCAGG DNA 2: CCTGCCCTGCGTGGATTTGTCACTTCCTGCTCAGAG | 6750 PBM fluorescence, median of replicate spots
4 | Table S2 B row 3240 (dsDNA) DNA 1: CTGTCCGCGACATCCGGGACCTGGGGGACCGCCGAT DNA 2: ATCGGCGGTCCCCCAGGTCCCGGATGTCGCGGACAG | 8950 PBM fluorescence, median of replicate spots
5 | Table S2 B row 3533 (dsDNA) DNA 1: CCATTTCCCGCCTACCGACCTGCTGCACCTCACGGA DNA 2: TCCGTGAGGTGCAGCAGGTCGGTAGGCGGGAAATGG | 9790 PBM fluorescence, median of replicate spots
6 | Table S2 B row 785 (dsDNA) DNA 1: ATAGTCTCTTCCTGTGTTGCAAATCACAGGTCCACC DNA 2: GGTGGACCTGTGATTTGCAACACAGGAAGAGACTAT | 7860 PBM fluorescence, median of replicate spots
7 | Table S2 B row 3124 (dsDNA) DNA 1: TCCACATCCTGCTCCTCGGGTTTACGGCGAGGACTC DNA 2: GAGTCCTCGCCGTAAACCCGAGGAGCAGGATGTGGA | 10800 PBM fluorescence, median of replicate spots
8 | Table S2 B row 1299 (dsDNA) DNA 1: AGGAGTGTCACTTCCTCTTTCCTCACCAGAGCCTCC DNA 2: GGAGGCTCTGGTGAGGAAAGAGGAAGTGACACTCCT | 9350 PBM fluorescence, median of replicate spots
9 | Table S2 B row 2465 (dsDNA) DNA 1: CTACGACTTCCGTGATGCCTTACGGTTGCTGTAGCC DNA 2: GGCTACAGCAACCGTAAGGCATCACGGAAGTCGTAG | 7160 PBM fluorescence, median of replicate spots
10 | Table S2 B row 16 (dsDNA) DNA 1: CCACTGCTTCCGCCTTCTCTGCTGGCTGAGGGGAGC DNA 2: GCTCCCCTCAGCCAGCAGAGAAGGCGGAAGCAGTGG | 8730 PBM fluorescence, median of replicate spots
11 | Table S2 B row 185 (dsDNA) DNA 1: GCCAGGAGGACTTCCGGGTGGGTGTGATATCTGCGA DNA 2: TCGCAGATATCACACCCACCCGGAAGTCCTCCTGGC | 11300 PBM fluorescence, median of replicate spots
12 | Table S2 B row 2131 (dsDNA) DNA 1: CTACTTTCCGGTCAACGCGGCCTGGGGTACCACCTC DNA 2: GAGGTGGTACCCCAGGCCGCGTTGACCGGAAAGTAG | 9890 PBM fluorescence, median of replicate spots
13 | Table S2 C row 64 (dsDNA) DNA 1: GACAGAAAGCAAATTAGTGGTAGCCAAGGGCTAGGG DNA 2: CCCTAGCCCTTGGCTACCACTAATTTGCTTTCTGTC | 439 PBM fluorescence, median of replicate spots
14 | Table S2 B row 1486 (dsDNA) DNA 1: TCTGTCGTCCCACTTCCTGCTGCGGATTCCACCTCG DNA 2: CGAGGTGGAATCCGCAGCAGGAAGTGGGACGACAGA | 12200 PBM fluorescence, median of replicate spots
15 | Table S2 B row 526 (dsDNA) DNA 1: TTACTTCCTGAGGGTGCACAGGCTGGGGTCGTCTAT DNA 2: ATAGACGACCCCAGCCTGTGCACCCTCAGGAAGTAA | 8570 PBM fluorescence, median of replicate spots
16 | Table S2 C row 176 (dsDNA) DNA 1: ATATCCACTCAGTAGTGTGGTTTGTAAGGACTAAAT DNA 2: ATTTAGTCCTTACAAACCACACTACTGAGTGGATAT | 440 PBM fluorescence, median of replicate spots
17 | Table S2 B row 3959 (dsDNA) DNA 1: AAGGGCAAAGTCACAGCCACTTCCGCCCAGCGCTTC DNA 2: GAAGCGCTGGGCGGAAGTGGCTGTGACTTTGCCCTT | 7470 PBM fluorescence, median of replicate spots
18 | Table S2 B row 771 (dsDNA) DNA 1: AACAGGAAGTGGTCTTAGAGATCATGGGGTTCAGAG DNA 2: CTCTGAACCCCATGATCTCTAAGACCACTTCCTGTT | 7400 PBM fluorescence, median of replicate spots
19 | Table S2 B row 3820 (dsDNA) DNA 1: GGCGGCTTCCGGGATCTGCCTGGCGCTTGCTTTGTC DNA 2: GACAAAGCAAGCGCCAGGCAGATCCCGGAAGCCGCC | 8430 PBM fluorescence, median of replicate spots
20 | Table S2 C row 4 (dsDNA) DNA 1: GAAAGAGCGAAATGTTGCGGTTTAGTTAATGCTTTG DNA 2: CAAAGCATTAACTAAACCGCAACATTTCGCTCTTTC | 442 PBM fluorescence, median of replicate spots
21 | Table S2 B row 559 (dsDNA) DNA 1: GCAGCATTTCCTGACTTCTTCGCCCCTGTCGTTGCA DNA 2: TGCAACGACAGGGGCGAAGAAGTCAGGAAATGCTGC | 6900 PBM fluorescence, median of replicate spots

Row | Binder | binding signal
22 | Table S2 B row 2841 (dsDNA) DNA 1: CCTGTTTCCTGCCATCTGCCCTTCCTTTGGGGTCAA DNA 2: TTGACCCCAAAGGAAGGGCAGATGGCAGGAAACAGG | 8210 PBM fluorescence, median of replicate spots
23 | Table S2 C row 138 (dsDNA) DNA 1: AGTAGTGCTTTTTCAACCACAGACCAACATTTGAGA DNA 2: TCTCAAATGTTGGTCTGTGGTTGAAAAAGCACTACT | 437 PBM fluorescence, median of replicate spots
24 | Table S2 B row 4089 (dsDNA) DNA 1: GCTGTTTCCTGCTGATAAAAACACCCCTCAACTTCA DNA 2: TGAAGTTGAGGGGTGTTTTTATCAGCAGGAAACAGC | 11800 PBM fluorescence, median of replicate spots
25 | Table S2 B row 1811 (dsDNA) DNA 1: GGTTTCGCTTCCGGGTTAGGCGGCCGGAGAAGCGTA DNA 2: TACGCTTCTCCGGCCGCCTAACCCGGAAGCGAAACC | 11000 PBM fluorescence, median of replicate spots
26 | Table S2 B row 1635 (dsDNA) DNA 1: GGACAGGAAGTTCCTGCAGCTTCTACCCCAAACCTA DNA 2: TAGGTTTGGGGTAGAAGCTGCAGGAACTTCCTGTCC | 9480 PBM fluorescence, median of replicate spots
27 | Table S2 C row 117 (dsDNA) DNA 1: ACAGAGCCATTACCTACCACAGAGCTGACGTGAACA DNA 2: TGTTCACGTCAGCTCTGTGGTAGGTAATGGCTCTGT | 437 PBM fluorescence, median of replicate spots
28 | Table S2 B row 1623 (dsDNA) DNA 1: ACATTTCCGTTCAGCTCAGTGTTCACGGTGCGAGAC DNA 2: GTCTCGCACCGTGAACACTGAGCTGAACGGAAATGT | 32300 PBM fluorescence, median of replicate spots
29 | Table S2 B row 2731 (dsDNA) DNA 1: AGAACCACTTCCTCTCAGTAAATCACAGAGACTGTA DNA 2: TACAGTCTCTGTGATTTACTGAGAGGAAGTGGTTCT | 10400 PBM fluorescence, median of replicate spots
30 | Table S2 C row 170 (dsDNA) DNA 1: TCCTGAACTATTCACTGTGGTGATGAAATATGCTAA DNA 2: TTAGCATATTTCATCACCACAGTGAATAGTTCAGGA | 432 PBM fluorescence, median of replicate spots
31 | Table S2 C row 99 (dsDNA) DNA 1: ACAAGCATTTGATTCTGTGGGTCCCCAATGTTGGAA DNA 2: TTCCAACATTGGGGACCCACAGAATCAAATGCTTGT | 431 PBM fluorescence, median of replicate spots
32 | Table S2 B row 2669 (dsDNA) DNA 1: CCCCTCAGCTTCCGGGTGCTGCGCCCGAGGCCGAGA DNA 2: TCTCGGCCTCGGGCGCAGCACCCGGAAGCTGAGGGG | 9110 PBM fluorescence, median of replicate spots
33 | Table S2 B row 4091 (dsDNA) DNA 1: GGCATTCACTTCCGGTCTGGGGCCTACGGCGGCGGC DNA 2: GCCGCCGCCGTAGGCCCCAGACCGGAAGTGAATGCC | 37100 PBM fluorescence, median of replicate spots
34 | Table S2 C row 81 (dsDNA) DNA 1: AGCCTGACTCTGTGCTGTGGTTGTGAGGCTGGAATG DNA 2: CATTCCAGCCTCACAACCACAGCACAGAGTCAGGCT | 440 PBM fluorescence, median of replicate spots
35 | Table S2 B row 2712 (dsDNA) DNA 1: TGGGGCGAAATCCACTGACTTCCGGCTACGCCGTTG DNA 2: CAACGGCGTAGCCGGAAGTCAGTGGATTTCGCCCCA | 10100 PBM fluorescence, median of replicate spots
36 | Table S2 B row 123 (dsDNA) DNA 1: ACAACCCGGAAGTTGGCGCAGCGCGCTTGCCAATGG DNA 2: CCATTGGCAAGCGCGCTGCGCCAACTTCCGGGTTGT | 12000 PBM fluorescence, median of replicate spots
37 | Table S2 C row 84 (dsDNA) DNA 1: ATCTATTATGAGCCTACCACCATGCTAGACAAGTTG DNA 2: CAACTTGTCTAGCATGGTGGTAGGCTCATAATAGAT | 434 PBM fluorescence, median of replicate spots
38 | Table S2 B row 3759 (dsDNA) DNA 1: AGCGGCTCCTTCCGGCGGCGCCGGTTCCCTTCCCTC DNA 2: GAGGGAAGGGAACCGGCGCCGCCGGAAGGAGCCGCT | 6670 PBM fluorescence, median of replicate spots
39 | Table S2 C row 1 (dsDNA) DNA 1: CCCTCATCTGAGAACACCACATTTCTCCCTCTGTCA DNA 2: TGACAGAGGGAGAAATGTGGTGTTCTCAGATGAGGG | 436 PBM fluorescence, median of replicate spots
40 | Table S2 B row 2565 (dsDNA) DNA 1: AGCCACATCCTGGACAAAAGCTGTTGTCTAGTAACC DNA 2: GGTTACTAGACAACAGCTTTTGTCCAGGATGTGGCT | 7070 PBM fluorescence, median of replicate spots
41 | Table S2 B row 741 (dsDNA) DNA 1: CAACTTCCGGGGCCGGTTGCCTGGCAACAGCAGGAG DNA 2: CTCCTGCTGTTGCCAGGCAACCGGCCCCGGAAGTTG | 35000 PBM fluorescence, median of replicate spots
42 | Table S2 B row 1200 (dsDNA) DNA 1: GGTTCATTTCCTTTTCCTCCTTGGGGTATAAAAGAG DNA 2: CTCTTTTATACCCCAAGGAGGAAAAGGAAATGAACC | 8120 PBM fluorescence, median of replicate spots

Source: paper PMC10681739, “High-throughput data and modeling reveal insights into the mechanisms of cooperative DNA-binding by transcription factor proteins”
